Measurements taken from the supplement of paper PMC7877785.
± gives the uncertainty stated by the source.

Assay: self-splicing fitness, log relative to wild type (ln ratio); higher = more splicing; Tetrahymena group I intron in knt gene, E. coli kanamycin selection, DiMSum; sequences stand for … in CUCUCU…GGAGGGAAAAGUUAUCAGGCAUGCACCUGGUAGCUAGUCUUUAAACCAAUAGAUUGCAUCGGUUUAAAAGGCAAGACCGUCAAAUUGCGGGAAAGGGGUCAACAGCCGUUCAGUACCAAGUCUCAGGGGAAACUUUGAGAUGGCCUUGCAAAGGGUAUGGUAAUAAGCUGACGGACAUGGUCCUAACCACGCAGCCAAGUCCUAAGUCAACAGAUCUUCUGUUGAUAUGGAUGCAGUUCACAGACUAAAUGUCGGUCGGGGAAGAUGUAUUCUUCUCAUAAGAUAUAGUCGGACCUCUCCUUAAUGGGAGCUAGCGGAUGAAGUGAUGCAACACUGGAGCCGCUGGGAACUAAUUUGUAUGCGAAAGUAUAUUGAUUAGUUUUGGAGUACUCGUGGUCG
Summary of the method: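 Pooled colonies went to amplicon sequencing on an Illumina HiSeq 2500 after six replicate transformations. The plates were LB agar with 100 μg/mL carbenicillin, 50 μM IPTG and 0.2% rhamnose, with or without 25 μg/mL kanamycin, incubated overnight at 37°C or 30°C. The E. coli BL21(DE3) library had all eight P1ex-region intron nucleotides randomised, the intron placed in the knt kanamycin-resistance gene on pET-22b(+). DiMSum fitness is the error-weighted combination of replicate fold changes, kanamycin against none, normalised to wild type.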

GGAAAGCAAUAUUACGUUUG
self-splicing fitness (ln) (30 °C): -3.17 ± 0.26 | self-splicing fitness (ln) (37 °C): -1.79 ± 0.25

GGACAGCAAUAUUACGAAAU
self-splicing fitness (ln) (30 °C): -1.25 ± 0.11 | self-splicing fitness (ln) (37 °C): -0.0392 ± 0.14

GGACAGCAAUAUUACGAAUG
self-splicing fitness (ln) (30 °C): -2.09 ± 0.17 | self-splicing fitness (ln) (37 °C): -1.9 ± 0.22

GGACAGCAAUAUUACGACUG
self-splicing fitness (ln) (30 °C): -0.809 ± 0.12 | self-splicing fitness (ln) (37 °C): -0.232 ± 0.17

GGACAGCAAUAUUACGAGUA
self-splicing fitness (ln) (30 °C): -2.92 ± 0.15 | self-splicing fitness (ln) (37 °C): -1.79 ± 0.13

GGACAGCAAUAUUACGAUCU
self-splicing fitness (ln) (30 °C): -2.62 ± 0.18 | self-splicing fitness (ln) (37 °C): -1.8 ± 0.2

GGACAGCAAUAUUACGCACC
self-splicing fitness (ln) (30 °C): -2.25 ± 0.25 | self-splicing fitness (ln) (37 °C): -1.8 ± 0.38

GGACAGCAAUAUUACGCAUC
self-splicing fitness (ln) (30 °C): -3 ± 0.12 | self-splicing fitness (ln) (37 °C): -0.76 ± 0.13

GGACAGCAAUAUUACGCCCC
self-splicing fitness (ln) (30 °C): -0.414 ± 0.41

GGACAGCAAUAUUACGCUAC
self-splicing fitness (ln) (30 °C): -4.74 ± 0.27 | self-splicing fitness (ln) (37 °C): -2.33 ± 0.24

GGACAGCAAUAUUACGCUAG
self-splicing fitness (ln) (30 °C): -1.85 ± 0.13 | self-splicing fitness (ln) (37 °C): -0.798 ± 0.17

GGACAGCAAUAUUACGCUUC
self-splicing fitness (ln) (30 °C): -1.74 ± 0.19

GGACAGCAAUAUUACGGACG
self-splicing fitness (ln) (30 °C): -0.636 ± 0.12 | self-splicing fitness (ln) (37 °C): -0.327 ± 0.12

GGACAGCAAUAUUACGGAGG
self-splicing fitness (ln) (30 °C): -3.52 ± 0.15 | self-splicing fitness (ln) (37 °C): -0.672 ± 0.096

GGACAGCAAUAUUACGGCGC
self-splicing fitness (ln) (30 °C): 0.0232 ± 0.12 | self-splicing fitness (ln) (37 °C): 0.203 ± 0.13

GGACAGCAAUAUUACGGGCA
self-splicing fitness (ln) (30 °C): -0.731 ± 0.18 | self-splicing fitness (ln) (37 °C): -0.477 ± 0.17

GGACAGCAAUAUUACGGUAG
self-splicing fitness (ln) (30 °C): -1.7 ± 0.061 | self-splicing fitness (ln) (37 °C): -1.32 ± 0.073

GGACAGCAAUAUUACGGUUA
self-splicing fitness (ln) (30 °C): -0.28 ± 0.097 | self-splicing fitness (ln) (37 °C): 0.525 ± 0.11

GGACAGCAAUAUUACGUAAA
self-splicing fitness (ln) (30 °C): -0.529 ± 0.12 | self-splicing fitness (ln) (37 °C): 0.362 ± 0.16

GGACAGCAAUAUUACGUAAG
self-splicing fitness (ln) (30 °C): -0.165 ± 0.061 | self-splicing fitness (ln) (37 °C): 0.19 ± 0.079

GGACAGCAAUAUUACGUAGC
self-splicing fitness (ln) (30 °C): -0.679 ± 0.084 | self-splicing fitness (ln) (37 °C): -0.618 ± 0.098

GGACAGCAAUAUUACGUAGG
self-splicing fitness (ln) (30 °C): -0.254 ± 0.053 | self-splicing fitness (ln) (37 °C): -0.517 ± 0.063

GGACAGCAAUAUUACGUAGU
self-splicing fitness (ln) (30 °C): -1.61 ± 0.059 | self-splicing fitness (ln) (37 °C): -1.15 ± 0.085

GGACAGCAAUAUUACGUCAA
self-splicing fitness (ln) (30 °C): -0.0403 ± 0.063 | self-splicing fitness (ln) (37 °C): 0.0855 ± 0.085

GGACAGCAAUAUUACGUCAC
self-splicing fitness (ln) (30 °C): -2.41 ± 0.17 | self-splicing fitness (ln) (37 °C): -1.56 ± 0.2

GGACAGCAAUAUUACGUGAA
self-splicing fitness (ln) (30 °C): -0.306 ± 0.057 | self-splicing fitness (ln) (37 °C): -0.142 ± 0.062

GGAGAGCAAUAUUACGAAGU
self-splicing fitness (ln) (30 °C): -3.48 ± 0.37 | self-splicing fitness (ln) (37 °C): -1.33 ± 0.2

GGAGAGCAAUAUUACGAGGU
self-splicing fitness (ln) (30 °C): -3.34 ± 0.32 | self-splicing fitness (ln) (37 °C): -3.01 ± 0.37

GGAGAGCAAUAUUACGAUGU
self-splicing fitness (ln) (30 °C): -1.92 ± 0.15 | self-splicing fitness (ln) (37 °C): -1.74 ± 0.28

GGAGAGCAAUAUUACGCAGC
self-splicing fitness (ln) (30 °C): -1.26 ± 0.17 | self-splicing fitness (ln) (37 °C): -2.78 ± 0.26

GGAGAGCAAUAUUACGGAUC
self-splicing fitness (ln) (30 °C): -1.91 ± 0.12 | self-splicing fitness (ln) (37 °C): -0.404 ± 0.14

GGAGAGCAAUAUUACGGAUU
self-splicing fitness (ln) (37 °C): -1.62 ± 0.22

GGAGAGCAAUAUUACGGCUA
self-splicing fitness (ln) (30 °C): -2.06 ± 0.32 | self-splicing fitness (ln) (37 °C): -1.25 ± 0.18

GGAGAGCAAUAUUACGGGUU
self-splicing fitness (ln) (30 °C): -3.71 ± 0.24 | self-splicing fitness (ln) (37 °C): -2.46 ± 0.19

GGAGAGCAAUAUUACGGUCG
self-splicing fitness (ln) (30 °C): -1.18 ± 0.25 | self-splicing fitness (ln) (37 °C): -1.56 ± 0.29

GGAGAGCAAUAUUACGUAGG
self-splicing fitness (ln) (30 °C): -3.43 ± 0.25 | self-splicing fitness (ln) (37 °C): -0.82 ± 0.25

GGAGAGCAAUAUUACGUCCU
self-splicing fitness (ln) (30 °C): -3.2 ± 0.24 | self-splicing fitness (ln) (37 °C): -3.27 ± 0.43

GGAGAGCAAUAUUACGUCGA
self-splicing fitness (ln) (30 °C): -2.7 ± 0.32 | self-splicing fitness (ln) (37 °C): -1.53 ± 0.26

GGAGAGCAAUAUUACGUCGU
self-splicing fitness (ln) (30 °C): -2.89 ± 0.21 | self-splicing fitness (ln) (37 °C): -2.5 ± 0.27

GGAGAGCAAUAUUACGUGUG
self-splicing fitness (ln) (30 °C): -4.29 ± 0.34 | self-splicing fitness (ln) (37 °C): -3.29 ± 0.27

GGAGAGCAAUAUUACGUUAG
self-splicing fitness (ln) (30 °C): -3.5 ± 0.23 | self-splicing fitness (ln) (37 °C): -1.54 ± 0.41

GGAGAGCAAUAUUACGUUGU
self-splicing fitness (ln) (30 °C): -4.01 ± 0.19 | self-splicing fitness (ln) (37 °C): -3.77 ± 0.24

GGAUAGCAAUAUUACGAAAG
self-splicing fitness (ln) (30 °C): -2.79 ± 0.48

GGAUAGCAAUAUUACGAACC
self-splicing fitness (ln) (30 °C): -2.49 ± 0.36 | self-splicing fitness (ln) (37 °C): -1.77 ± 0.28

GGAUAGCAAUAUUACGAAUC
self-splicing fitness (ln) (30 °C): -1.72 ± 0.088 | self-splicing fitness (ln) (37 °C): -1.8 ± 0.12

GGAUAGCAAUAUUACGACUA
self-splicing fitness (ln) (30 °C): -1.37 ± 0.42 | self-splicing fitness (ln) (37 °C): -1.11 ± 0.28

GGAUAGCAAUAUUACGAUCG
self-splicing fitness (ln) (30 °C): -0.534 ± 0.095 | self-splicing fitness (ln) (37 °C): 0.652 ± 0.14

GGAUAGCAAUAUUACGCCUA
self-splicing fitness (ln) (30 °C): -1.45 ± 0.14 | self-splicing fitness (ln) (37 °C): -0.0155 ± 0.17

GGAUAGCAAUAUUACGCUGG
self-splicing fitness (ln) (30 °C): -2.25 ± 0.15 | self-splicing fitness (ln) (37 °C): -1.05 ± 0.18
